# Assay results published in US20250276075A1, “METHODS OF TREATING AXL-EXPRESSING CANCERS WITH ANTI-AXL ANTIBODIES, ANTIBODY FRAGMENTS AND THEIR IMMUNOCONJUGATES” (BIOATLA, INC., priority 2020, published 2025).
# Entries after “also recorded” stand apart in the source; their conditions may differ.
# T1: mouse Axl (Mus musculus, UniProt Q00993)
# T1 sequence (Q00993 19-888): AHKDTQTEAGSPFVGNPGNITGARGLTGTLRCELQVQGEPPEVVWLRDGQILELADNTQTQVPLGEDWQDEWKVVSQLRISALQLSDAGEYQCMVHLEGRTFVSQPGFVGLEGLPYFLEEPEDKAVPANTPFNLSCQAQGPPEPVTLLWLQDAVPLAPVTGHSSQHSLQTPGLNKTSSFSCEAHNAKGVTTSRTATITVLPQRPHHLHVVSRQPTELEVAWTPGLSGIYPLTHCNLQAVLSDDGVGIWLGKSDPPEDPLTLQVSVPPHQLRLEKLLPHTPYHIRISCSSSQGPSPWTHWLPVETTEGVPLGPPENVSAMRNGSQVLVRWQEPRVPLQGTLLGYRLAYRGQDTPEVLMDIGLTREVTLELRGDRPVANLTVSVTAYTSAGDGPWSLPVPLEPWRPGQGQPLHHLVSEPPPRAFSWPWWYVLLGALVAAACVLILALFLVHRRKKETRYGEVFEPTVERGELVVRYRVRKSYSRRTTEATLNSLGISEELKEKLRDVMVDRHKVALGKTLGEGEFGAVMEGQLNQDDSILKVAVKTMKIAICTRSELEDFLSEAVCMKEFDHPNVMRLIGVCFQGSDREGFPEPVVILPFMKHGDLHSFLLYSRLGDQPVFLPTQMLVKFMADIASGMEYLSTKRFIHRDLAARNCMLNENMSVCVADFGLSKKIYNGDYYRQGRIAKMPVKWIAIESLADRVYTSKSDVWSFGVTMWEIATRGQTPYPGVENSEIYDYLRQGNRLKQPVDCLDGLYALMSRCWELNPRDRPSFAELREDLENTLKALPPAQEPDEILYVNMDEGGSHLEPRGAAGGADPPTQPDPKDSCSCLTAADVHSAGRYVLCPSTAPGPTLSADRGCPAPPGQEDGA
# B1: Mecbotamab vedotin (conjugate, chains of the INN, looked up)
# VH: EVQLVQSGAEVKKPGATVKISCKVSGYSFWGATMNWIRQPPGKGLEWIGLIKPSNGGTSYNQKFKGRVTISADKSISTAYLQWSSLKASDTAMYYCAHGHYESYEAMDYWGQGTLVTVSS
# VL: DIQMTQSPSSLSASVGDRVTITCKASQDVVSAVAWYQQKPGQAPRLLIYWQDTRHTGVPSRFSGSGSGTEFTLTISSLQPDDFATYYCQEHFSPPLTFGQGTKVEIK
# modifications: MC-vc-PAB-MMAE conjugate
# How the values were obtained:
# [1] = system: human tumor cell line derived xenograft tumors expressing Axl; assay: BA3011 anti-tumor efficacy in xenograft mouse models; format: in vivo
# Protocol: Tumor cell lines representing NSCLC (LCLC103H), prostate (DU145), and pancreatic tumor (MIAPaCa2) were tested in this in vivo mouse model system. Once tumors were established at a size of about 150 mm3, animals were treated with BA3011 at the indicated dose levels following the indicated schedule. BA3011 induced greater than 70% TGI in 4 out of 7 models tested, as shown on FIG. 17D.
# [2] = Phase 1 clinical study of BA3011: pharmacokinetics; format: in vivo, human
# From the text: • PK of BA3011: plasma concentrations of ADC, total antibody and MMAE, and PK parameters, including Cmax and AUC. • Efficacy (expansion cohorts only): ORR, disease control rate (DCR), time to response (TTR), duration of response (DOR), best objective response (OR), progression-free survival (PFS), overall survival (OS), and percent change from baseline in tumor size. • Immunogenicity of BA3011: the number and percentage of patients who develop detectable anti-drug antibodies (ADAs).
# Sample collection timepoints for BA3011 PK, PD, and immunogenicity testing are presented in Table 18 (Phase 1) and Table 19 (Phase 2).
# (§1) In Phase 1 (NCT03425279), BA3011 was administered once (Q3W) or twice (2Q3W) every 3 weeks via intravenous (IV) infusion.
# mouse Axl = biological target: T1, mouse Axl; assay: BA3011 binding to mouse Axl
# advanced sarcoma = assay: Phase 1 clinical study of BA3011: antitumor activity (RECIST v1.1, change in sum of target lesions); format: in vivo, human
# From the text: The primary efficacy endpoint in Phase 2 is objective response (OR) per RECIST v1.1 using blinded independent central review (BICR). Objective response rate (ORR) is defined as the proportion of subjects with a best overall response of confirmed CR or confirmed PR that occur prior to the initiation of subsequent anticancer treatment. ORR will be estimated with a 95% CI using the exact probability method for each sarcoma subtype and overall in each of the 2 treatment groups (BA3011 alone and in combination with nivolumab). Other efficacy endpoints are duration of response (DOR), progression-free survival (PFS), best overall response (OR), disease control rate (DCR), time to response (TTR), progression-free rate (PFR) at 12 weeks, overall survival (OS), and percent change from baseline in target lesion sum of diameters. All efficacy endpoints except PFS and OS will be summarized primarily based on the full analysis set (FAS). PFS and OS will be summarized based on the As-Treated Population. Time-to-event data will be summarized using Kaplan-Meier estimates. Response rates and their confidence intervals will be estimated using the exact probability method. Graphical analyses will include spider and waterfall plots for the change and best change from baseline in tumor size, respectively.
# Study BA3011-001 was an ongoing, multi-center, open-label, Phase 1/2 first-in-human trial of BA3011.
# as §1
# [3] = system: Axl expressing human cancer cell lines; assay: BA3011 in vitro functional assays of cellular toxicity; format: cell-based
# cynomolgus monkey Axl = assay: BA3011 binding to cynomolgus monkey Axl
# [4] = at the dose and schedules tested
molecule,measurement,setting,value
B1,body weight loss,[1]; [4],did not induce body weight loss
same,clinical signs of toxicity,[1]; [4],no other clinical signs of toxicity were noted
same,tumor growth inhibition (TGI) relative to control,[1]; in 4 out of 7 models tested,greater than 70%
same,PK profile,[2],approximately dose proportional
same,half-life,[2],approximately 4 days
same,binding to mouse Axl,mouse Axl,not mouse or rat Axl; also recorded: lacked binding to the rodent enzyme
same,antitumor activity in sarcoma patients,advanced sarcoma; Phase 1,correlated with higher levels of AXL tumor membrane expression; also recorded: evidence of antitumor activity was observed
same,confirmed partial responses,advanced sarcoma; of 7 treatment refractory sarcoma patients with baseline TmPS≥70 dosed at 1.8 mg/kg (Q3w or 2Q3w),4
same,duration of response to therapy,"advanced sarcoma; sarcoma patients, FIG. 24",Prolonged response to therapy
same,cytotoxicity,[3]; normal conditions,reduced cytotoxicity
same,cellular toxicity,[3]; tumor conditions,induce cellular toxicity
same,cross-reactivity to the cynomolgus Axl protein,cynomolgus monkey Axl,cross-reacted
same,binding to cynomolgus monkey Axl,cynomolgus monkey Axl; conditions mimicking the TME (pH 6.0-7.0),high affinity and specificity
same,binding to cynomolgus monkey Axl,cynomolgus monkey Axl; conditions mimicking the normal tissue environment (pH 7.3-7.4),reduced binding
